In patent US20210206842A1 (NATIONAL RESEARCH COUNCIL OF CANADA, published 2021):

How the values were obtained:
human Nav1.7 polypeptide [1] = molecular target: T1, human Nav1.7 polypeptide (human, UniProt Q15858 1-1988); assay: cell-based or functional assay
[2] = molecular target: T2, FC5DIE3IR recombinant protein; assay: ELISA on coated FC5DIE3IR, serial dilutions of purified mAb, OD 405 nm; fit One site - Specific binding with Hill slope; apparent Kd in the unit of the concentration axis (nM), the table itself prints no unit
T2 construct: Made in CHO-3E7 cells; also called FC5DIE31R; FC5DIE3R
Method: (§1) Screening. Hybridoma supernatants were screened by ELISA to detect specific binders. To this end, 96-well half-area plates (Costar #3690) were coated with 25 μl of FC5DIE3IR or FC5-VHH or FC5-hFc-1X0 at 5 μg/ml in PBS and incubated overnight at 4° C. Microplates were washed 3 times with PBS, blocked with PBS-BSA 1%, and 25 μl of hybridoma supernatants were added and incubated at 37° C., 5% CO₂ for 2 hours. […] After 4 washes with PBS-Tween 20 0.05%, 25 μl of a 1 mg/ml pNPP substrate solution was added and further incubated for one hour at 37° C.
(§2) Evaluation of apparent affinity in ELISA. Purified antibodies were assessed for their binding activity by ELISA in a dose-dependent binding curve. Serial 1/3 dilutions of purified mAbs starting at 120 nM were applied onto wells and ELISA was performed as described above (screening section). The data were analyzed with GraphPad Prism software using one-site specific binding-with Hill slope non-linear regression curve fit model to determine Bₘₐₓ (maximum specific binding) and Kdₐₚₚ (concentration needed to achieve a half-maximum binding at equilibrium) for each mAb tested.

VHH FC5 [3] = molecular target: T3, VHH FC5; assay: SPR, mAb 1G5 and FC5, 25 C
T3 construct: put together from its FR and CDR entries; also called FC5-VHH; FC5 control

[4] = molecular target: T2, FC5DIE3IR recombinant protein; assay: ELISA on coated FC5DIE3IR, serial dilutions of purified mAb; fit One site - Specific binding with Hill slope
Method: as §1, §2

human Nav1.7 polypeptide [5] = molecular target: T1, human Nav1.7 polypeptide; assay: cell ELISA, hybridoma supernatant on live CHO cells expressing human Nav1.7, duplicate 2
Method: (§3) Cell-ELISA. Sterile 96-well plates (Costar #3595) were pre-treated with 50 μl/well of branched polyethyleneimine (PEI, Sigma Cat #408727) at 25 μg/ml in PBS for 30 min at room temperature. PEI was removed and CHO-3E7 or hNAᵥ1.7-CHO (ChanTest cat #CT4003) were seeded at 6×10⁵ cells per well in FreeStyle F17 Expression Medium (Gibco Cat #A1383501) and incubated overnight at 37° C., 5% CO₂. Microplates were blocked with Starting block (Thermofisher Cat #37538) for 30 min at room temperature, and 50 μl of hybridoma supernatants were added and incubated at 4° C. for 3 h. […] After 10 washes with PBS, 50 μl of TMB substrate solution (Pierce Cat #34021) was added and further incubated for 60 min at room temperature.

human Nav1.7 polypeptide [6] = molecular target: T1, human Nav1.7 polypeptide; assay: cell ELISA, hybridoma supernatant on live CHO cells expressing human Nav1.7, duplicate 1
Method: as §3

[7] = molecular target: T2, FC5DIE3IR recombinant protein; assay: ELISA, hybridoma supernatant on coated purified FC5DIE3IR
Method: as §1

[8] = molecular target: T2, FC5DIE3IR recombinant protein; assay: SPR, mAb 1G5 and FC5DIE3IR, 25 C
[9] = molecular target: T2, FC5DIE3IR recombinant protein; assay: apparent KD (Kdapp), ELISA dose curve of purified mAb on coated FC5DIE3IR; 1G5 clone (IgG1), ELISA apparent KD
Method: as §1, §2

VHH FC5 [10] = molecular target: T3, VHH FC5; assay: ELISA, hybridoma supernatant on coated purified FC5-VHH
Method: as §1

peptide #2a (20 aa) = molecular target: T4, peptide #2a (20 aa) (human); assay: ELISA on coated P2a, mAb at the dilutions 1:1000, 1:5000 and 1:10000, Abs 450nm
T4 construct: Custom-synthesized (Biomatik); also called pep #2a; P2a
T4 peptide: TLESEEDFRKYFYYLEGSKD
Method: (§4) The peptides were custom-synthesized (Biomatik) and tested for antibody binding by ELISA. […] The wells were blocked with 1% BSA in TBS-T for 30 min and then incubated with 1:1000 dilution of anti-hNaᵥ1.7 mAb at room temperature (RT) for one hr.

peptide #2b (20 aa) = molecular target: T5, peptide #2b (20 aa) (human); assay: ELISA on coated P2b, mAb at the dilutions 1:1000, 1:5000 and 1:10000, Abs 450nm
T5 construct: Custom-synthesized (Biomatik); also called pep #2b; P2b
T5 peptide: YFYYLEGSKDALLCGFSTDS
Method: as §4

VHH FC5 [11] = molecular target: T3, VHH FC5; assay: SPR, single cycle kinetics, Fc-captured mAb, FC5 flowed, 25 C
Method: (§5) HBS-EP running buffer used for SPR experiments. […] Test binding experiments of FC5 control and FC5DIE3IR involved flowing 1 μM concentrations of SEC-pure material over the mAb surface at a flow rate of 30 μl/min for 5 min. Surfaces could be regenerated using 10 mM glycine, pH 1.7, with a 120 sec pulse at 20 μl/min. All SPR experiments were evaluated with Biacore T200 Software v 3.0. […] Regeneration conditions were the same as above. Data were fit to a 1:1 binding model and analyzed using the Biacore T200 Software v3.0.

[12] = molecular target: T2, FC5DIE3IR recombinant protein; assay: SPR (Biacore T200), single cycle kinetics, Fc-captured mAb, FC5DIE3IR flowed (320 nM-20 nM), 1:1 model, 25 C
Method: as §5

peptide #40a (40 aa) = molecular target: T6, peptide #40a (40 aa) (human); assay: ELISA on coated peptide or FC5DIE3IR, mAb detected with HRP anti-mouse Fc, Abs 450nm
T6 construct: Custom-synthesized (Biomatik); also called pep #40a; P40a
T6 peptide: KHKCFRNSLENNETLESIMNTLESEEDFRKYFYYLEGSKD
Method: as §4

peptide #40b (40 aa) = molecular target: T7, peptide #40b (40 aa) (human); assay: as above
T7 construct: Custom-synthesized (Biomatik); also called pep #40b; P40b
Method: as §4

T3 sequence (VHH, as listed by the source): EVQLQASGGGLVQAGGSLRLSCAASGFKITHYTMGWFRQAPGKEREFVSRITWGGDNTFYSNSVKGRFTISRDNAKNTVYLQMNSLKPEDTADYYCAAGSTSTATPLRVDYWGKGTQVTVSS

B1: mAb 1G5 (antibody, V domains shown)
VH: QVQLQQPGAELVKPGASVKLSCKASGYTFTSYWINWVKQRPGQGLEWIGNIYPGNSNTNYNEKFKSKATLTVDKSSSTAYMQLSSLTSEDSAVYYCARRYYYDYDDAMDYWGQGTSVTVSS
VL: DIVLTQSPASLAVSLGQRATISCRASESVDSYGNGFMHWYQQKPGQPPKLLIYRASNLESGIPARVSGSGSRTDFTLTINPVEADDVATYYCQQSNEDPWTFGGGTKLEIK
notes: also called negative control
In the case of B1, the “Reduction currents (%) at 1 µM” value (human Nav1.7 polypeptide [1]) is reported as 0.77%, the Kd [2] is reported as 5.04 nM and the Kd (VHH FC5 [3]) is reported as 58.8 nM. The koff (VHH FC5 [3]) was 0.017 s⁻¹, the kon (VHH FC5 [3]) was 289000 M⁻¹ s⁻¹ and the Bmax [4] was 0.635 OD405 nm. For the same binder, the “cell ELISA signal (OD 450 nm)” value (human Nav1.7 polypeptide [5]) was 0.225 OD 450 nm, the “cell ELISA signal (OD 450 nm)” value (human Nav1.7 polypeptide [6]) was 0.172 OD 450 nm and the “ELISA signal (OD 405 nm)” value [7] was 1.14 OD 405 nm. The Kd [8] was 186 nM, the koff [8] was 0.0136 s⁻¹ and the kon [8] was 72900 M⁻¹ s⁻¹. The Kd [9] was 4.8 nM and the “ELISA signal (OD 405 nm)” value (VHH FC5 [10]) was 0.096 OD 405 nm.

B2: anti-hNav1.7 mAb 2G11 (antibody, V domains shown)
VH: QVQLQQPGAELVKPGASVKLSCKASGYTFTTYWMHWVKQRPGQGLEWIGEINPSNGRANYNEKFKSKATLTVDKSSSTAYMQLSSLTSEDSAVYYCLRSLGYFDYWGQGTTLTVSS
VL: DVVMTQSPLSLPVSLGDQASISCRSSQSLVHSNGNTYLHWYLQKAGQSPKFLIYKVSNRFSGVPDRFSGSGSGTDFTLKISRVEAEDLGVYFCSQSTHVPYTFGGGTKLEIK
For B2, the Kd [2] was 0.847 nM, the binding result (peptide #2a (20 aa)) was “no binding (tested: 1:1000 dilution)” and the Bmax [4] was 1.84 OD405 nm. For the same binder, the binding result (peptide #2b (20 aa)) was “no binding (tested: 1:1000 dilution)”, the binding result (VHH FC5 [11]) was “no binding” and the “cell ELISA signal (OD 450 nm)” value (human Nav1.7 polypeptide [5]) was 0.049 OD 450 nm. For the same binder, the “cell ELISA signal (OD 450 nm)” value (human Nav1.7 polypeptide [6]) was 0.041 OD 450 nm, the Kd [12] was 55.1 nM and the koff [12] was 0.000526 s⁻¹. The kon [12] was 9560 M⁻¹ s⁻¹, the “ELISA signal (OD 405 nm)” value [7] was 0.86 OD 405 nm and the binding result (peptide #40a (40 aa)) was “binds”. For the same binder, the binding result (peptide #40b (40 aa)) was “no binding” and the “ELISA signal (OD 405 nm)” value (VHH FC5 [10]) was 0.021 OD 405 nm.
